Source: the DeepSol protein solubility set

Test: soluble on expression in E. coli; label from the status in PepcDB or PDB records

Sequence | soluble on expression in E. coli
MSRQRLGKSMIKANSWSSNLNAYRILQEPQSLTEEPPPIQTICPVQPESMAPPEHHNHRHLVTQEENRGRHLVGNPMRRTRSDVGAHGLTPHQPLLTRSKSDHGLERVATPLAFEVQSVGSEQTASSAEVMTAAGRRHSLLTDYQAAIARPLDLDRVLAAVKLRAAAEIYCKKNNLARLSPRPPRTSAGNQRLDALVNRPVDELIAEVQAAPRKFSRTQLTDVAQRHLLAALNIDIDQYKKGVHKAGLYEGLHSVAGRLVSVAAAAVSAGVSEVPGVSKTVTKTVKILSHQLPSSVVNPALTGGLRSVTDVMESFKRVGGLPVLSPQIDKSPDMGKIVKAAREMRGQLDEAVGHFARAHKSDPQALPRLVDAFLALHGVADRQYRRRIGLNRTQTYGKGWGMAVNGVAAIGTVVSTTVPVVGQVAGPAILASTIPLQWGAGYLDERRNKHRYNLRANTKWGDFLKDNAANIHFKDLTVEHISESKLRQSFLTQPEVQIAAIREVYEDTIGELMRRRLEMQKDIDVQREAGRPMRALALKQLRELDAEIDVTKMHADQFESFNMDRWSAIPEDSVIGRCLDDLDNLQKANRRARLRKPGEGAQIVQRYVQAFQGGVSTGTTLPVVDAVASIDSFHVHDSQGHDHGLQPAPLAVAAGTGAAGGAVFTGATGEVRMSKADNKKIMTQLRVDPEVYTADAEHWRFRAGNRDVDLRTSAGYKQHAHTRWDELALVAQALKHGLTSGPVGLKNLAVAKVELRQARASLQSALDALAASGLPHRTPDSARAPTISSMKDQLYDYSEVRRHLGV | not soluble
MLALPAEFEQFHWMVDMVQNVDMGLIVINRDYNVQVWNGFMTHHSGKQAHDVIGKSLFEIFPEIPVEWFKLKTKPVYDLGCRSFITWQQRPYLFHCRNVRPVTQQAKFMYQNVTLNPMRTPTGAINSLFLSIQDATSEALVSQQASSQ | not soluble
MAHHHHHHMAKNDIWTPLESNPDSLYLYSCKLGQSKLKFVDIYGFNNDLLDMIPQPVQAVIFLYPVNDNIVSENNTNDKHNLKENFDNVWFIKQVKIITLCNMNNILPILYVCFNSIELKNNKSIENLHHEFCGQVENRDDILDVDTHFIVFVQIEGKIIELDGRKDHPTVHCFTNGDNFLYDTGKIIQDKFIEKCKDDLRFSALAVIPNDNFDII | soluble
MSNSFEILMNQLGMPAEMRQAPALAQANIERVVVHKISKVWEFHFVFSNILPIEIFLELKKGLSEEFSKTGNKAVFEIKARSQEFSNQLLQSYYREAFSEGPCASQGFKSLYQNLQVRAEGNQLFIEGSEAIDKEHFKKNHLPNLAKQLEKFGFP | not soluble
LPEIPIAAPDLLGHGRSPWAAPWTIDANVSALAALLDNQGDGPVVVVGHSFGGAVAMHLAAARPDQVAALVLLDPAVALDGSRVREVVDAMLASPDYLDPAEARAEKATGAWADVDPPVLDAELDEHLVALPNGRYGWRISLPAMVCYWSELARDIVLPPVGTATTLVRAVRASPAYVSDQLLAALDKRLGADFELLDFDCGHMVPQAKPTEVAAVIRSRLGPR | soluble
MDREALLQAVKEARELAKPRNFTQSFEFIATLKEIDMRKPENRIKTEVVLPHGRGKEAKIAVIGTGDLAKQAEELGLTVIRKEEIEELGKNKRKLRKIAKAHDFFIAQADLMPLIGRYMGVILGPRGKMPKPVPANANIKPLVERLKKTVVINTRDKPYFQVLVGNEKMTDEQIVDNIEAVLNVVAKKYEKGLYHIKDAYVKLTMGPAVKVKKEKAKKK | soluble
MSLVSLPGLPAMISEISKRNNLPTTAVEEALREALLKGYERFRRSQLMGHQFPEEYFNNFEVELDTEEEGFRVLSTKRIVEEVENSDQQISLKEVLEVAEEAQLGDEVVLDVTPEQKDFGRMAAIQTKQVLLQKLRDQQRKIIQEEFQDLEGTVLNARALRFERQSIIVAVQSSFGQPEVEAELPKREQLPNDNYRANSTFRVYLKRVREGSQRGPQLVVSRAAAGLVVDLFSVEVPEIEEEVVRIVAVAREAKPPSPSVGPRTKIAVDTLERDVDPVGACIGARGSRIHAVVNELRGEKIDVIRWSPDPATYIAQALSPARVDQVYLIHAEERHALVIVAEDQLSLAIGKEGQNVRLAARLTGWKIDIKDPETYARDKEAIEQSILERAAASAQARAEREAAEQEAQAKLEAEMAALEAEEAEELEETPEAIAEVEEEVEEWDQDQGPELGEEEELSLEHHHHHH | soluble
MAFSSRKEISSRNSERSTDDTACLRMSENGVALWCEKNVFVQENQPFVDYLPYFCSKVIGTLSIGKNLCGSFSGEKQSIPDKTIMVNIKI | not soluble
AHQYGVKSYIGIPRSYSHDRTDFMQSEQAEILYYDGKYEETVEFIRDFSKDNGLYDASPGSANSSIDKMMYATIAFEIYEALLTVPSYVIVPVGNGTTLAGIYHGFRRMYDEGVIDHLPRMVGVSTSGGNPIVDSWRHGYSRVVDLNPEEIRETSINEPLVSYRSFDGQDALSAIRETHGRAMYVSDEEMVYYSNLIYSAEGLNPLPASASAVAAIGHLKVKQDETVVSVITGRQI | not soluble
MGHHHHHHSHLCTNFFIFTGGPGSGKTAVLNELNTWGYLTVSEVARSIIQKQQADGGDAIHTGNRKAFRDLMLEQSIADYCKMQSEEKIVFFDRGIPDLYGYSKAFCGEASKEVNEAVGRFRYNKTVFIFPPWPEIYENDDERQQDYQEALQTYYAVKEGYFDCGYVLLEVPKCPIKDRANFIFQMISKNG | not soluble
MPPPIAFNASARKSQSVNQSDVMMMSDPSHVDIIKSNSHTTRIAVNLVSEPESRLKLHGEDARMSWTVLLLVFRATTIATRNNVPELDRELAR | not soluble
MGSDKIHHHHHHDNAGRVVEITSAPERVVSLSPAATRFLVFLGLEDKIVGVTDYDSYEAEKVGAMVPVNIEKVVSLNPDLVLMFGGFQLPEVPKLEKAGLKVLVVNPNSLNDIIRDVVLLGTIFDRRDLALEKSEKLREKMLEIGKKTYNVPPSKRPKVLYLISSPGPDVKEIWTCGMGSYLNEIISLAGGVNIASGIAGPNGWPQLSIEYVVSQNPDVIIVGVYIPGTENEEIKKILNFEPFKEINAVKNKRVFAVDGNVASQPSPDVFELLDLFYEFFYGGKGE | not soluble
MRDEKRKAIPAIGFYPQEEISTGTTLIAMEYNGGVVVGTDSRTSAGSFITSRATNKITPITDNMVVCRSGSAADTQAIADIAKYHIDVYTMTENKPVTIYRSSQIFRQFLYNYREQLSASVLVAGWDEELGGQVYAIPIGGFVSRQRSTASGSGSTFVQGFLDSQWRPNLTLEECKAIVKQAVGLATFRDGSSGGVVRLAVINKAGSQFELFRPDKPGFPFVQTPTPHLSFPPHIEQVL | not soluble
MGGSHHHHHHGDDDDKMTKTFKTLDDFLGTHFIYTYDNGWEYEWYAKNDHTVDYRIHGGMVAGRWVTDQKADIVMLTEGIYKISWTEPTGTDVALDFMPNEKKLHGTIFFPKWVEEHPEITVTYQNEHIDLMEQSREKYATYPKLVVPEFANITYMGDAGQNNEDVISEAPYKEMPNDIRNGKYFDQNYHRLNK | soluble
MGSDKIHHHHHHMRFYTKTHKYYCGIDLHARKKYVCILDSEGTVLVHREINCNPESFLRLVAPYREDLVVGVECMFAWYWLADLCRNEKIEFVLGHALYMKAVHGGKAKSDKIDAHKIAVLLRGGMFPLAYVYPPEMRATRDLLRRRNFFVRKRAELMAHIQNTVTQYNLAPLGIDLGVEENRHEVAQLFHDPEVRKIIEIDVAMIDAFDDVINVLEPDIEKTARQHNLHALKLLRSINGVGKVLGLVMLYEIHDINRFPTVQDFSSYCRLVKCAHESAGKKKGVGGSKIGNVHLKWAFSEAAVFFVRHNPQAKILMEKLVKIHGKGKAISILAHKLARAIFYMLKNNVPFDREKFLATA | not soluble
MSLSLDESNTALAEEFDNWDLEFKLWELVDRLFRFRALFSNKAKTELLREYDFSSMGIKQENFLRKNPAIRELSIIILWLQSHTPSLVGDETESYQTKWKNTAMAVANSDFDVLASRATDADLIDKLDIDAPLRSNRSIHPADESNDSKVFAQIYKLLLQDRVQDAIDIANNTGNYALALILVGATQEYFDPVLDKEGHHHHHH | soluble
